Measured values reported in patent US10889629B2, “Transfected T-cells and T-cell receptors for use in immunotherapy against cancers” (IMMATICS BIOTECHNOLOGIES GMBH, priority 2016, dated 2021).
Entries after “also recorded” stand apart in the source; their conditions may differ.

Columns and labels:
HLA-A*0201 molecule = HLA-A*0201 molecule (Homo sapiens, UniProt P04439, D140Y/D185E/D98H/E176V/E277Q/G131W/G231S/I119V/I121R/I166T/I218V/L300P/L318F/N151K/N90K/P208A/P217A/Q86G/Q94H/R138H/R169H/T345S); conditions: cited from earlier work
MHC/MAG-003 tetramer = MHC/MAG-003 tetramer (Homo sapiens, UniProt P04439+P43358, D140Y/D185E/D98H/E176V/E277Q/G131W/G231S/I119V/I121R/I166T/I218V/N151K/N90K/P208A/P217A/Q86G/Q94H/R138H/R169H); assay: Tetramer staining of TCR-RNA-electroporated CD8+ T-cells, MHC/MAG-003 tetramer; type: binding
Description: (§1) FIG. 8 show MHC/MAG-003 tetramer or MHC/NYESO1-001 tetramer staining of CD8+ T-cells electroporated with alpha and beta chain RNA of TCRs R7P1 D5, R20P1H7 and R10P2G12 (Table 2), respectively. CD8+ T-cells electroporated with RNA of 1G4 TCR that specifically binds to MHC/NYESO1-001 complex and mock electroporated CD8+ T-cells served as controls.
(§2) T-cell activation was further confirmed using a tetramer staining technique to detect MHC/MAG-003-binding activated cytotoxic T-cells. As shown in FIG. 8 and Table 11, a higher percentage of TCR-expressing CD8+ T-cells were stained positive fluorescent-labeled MHC/MAG-003 tetramer than that with MHC/NYESO1-001 control tetramer or mock control. […] The alpha and beta chains of TCR 1G4 are shown in SEQ ID NO:89 and 90, respectively: […]

MHC/NYESO1-001 tetramer = assay: Tetramer staining of TCR-RNA-electroporated CD8+ T-cells, MHC/NYESO1-001 control tetramer; type: binding, human
Description: as §1, §2

[1] = system: SK-BR-3 (human breast cancer cell line, HLA-A2-negative and MAG-003-negative); assay: IFNγ release, TCR-expressing CD8+ T-cells co-incubated with SK-BR-3; type: cell-based; conditions: Example 4, SK-BR-3, compared with effector cell only control
Method: (§3) To determine efficacy of T-cells expressing TCRs described herein, primary CD8+ T-cells electroporated with RNA of the TCRs R7P1 D5, R20P1H7 and R10P2G12 were co-incubated with different human cancer cell lines, e.g., A-375 (human melanoma cell line, which is positive for HLA-A2 and MAG-003 expression), T98G (human glioblastoma cell line, which is HLA-A2-positive and MAG-003-negative), and SK-BR-3 (human breast cancer cell line, which is HLA-A2-negative and MAG-003-negative), followed by IFNγ release assay.

[2] = system: T98G (human glioblastoma cell line, HLA-A2-positive and MAG-003-negative); assay: IFNγ release, TCR-expressing CD8+ T-cells co-incubated with T98G; type: cell-based; conditions: Example 4, T98G, compared with effector cell only control
Method: as §3

[3] = system: HLA-A*02 positive cell types from healthy tissues; assay: Safety: IFN-γ release upon co-culture with primary and iPSC-derived cell types from healthy tissues; type: cell-based, human; conditions: E:T ratio 1:1, 20 h, ELISA, normalized
Description: FIG. 13 T cells transfected with RNA coding for TCR R7P1 D5, R10P2G12, R20P1H7, mock or the control TCR 1G4 (SEQ ID NO:X) were co-cultured with different primary human healthy tissue cells (see table 13 for abbreviations), the target negative tumor cell line MCF-7 and the MAGEA4- and NY-ESO1-positive cell lines A-375 and NCI-H1755. TCRs R7P1D5, R10P2G12, R20P1H7 and 1G4 expression in T cells was achieved by electroporation using an RNA vector. […] E:T ratio 1:1, 20,000 cells each, mean of IFN-γ release after 20 h from replicates is shown as measured by ELISA. Error bars indicate standard deviations. Results were normalized by subtraction of IFN-γ release from TCR-transfected T cells only and IFN-γ release due to co-culture of Target cells and T cells not expressing TCR of interest.
(§4) TCRs of interest were expressed in human T cells via RNA electroporation and the T cells were assessed for IFN-γ release after co-culture with different target cells, such as T2 cells loaded with different peptides as well as tumor cell lines and primary cells from healthy tissues. T-cell activation data are shown in absolute IFN-γ levels or a normalized way as indicated below.
(§5) Efficacy of CD8+ T cells expressing TCRs R7P1 D5, R10P2G12 and R20P1H7 was determined by T cell activation studies (IFN-γ release) using different tumor cell lines as target cells. The characterization of the safety profile of TCRs of interest was approached by testing the potential activation of TCR-expressing T cells upon co-culture with isolated primary cell types from healthy tissues and induced pluripotent stem cell (iPSC)-derived cell types from HLA-A*02-positive donors (Table 13). Cell types were selected in a manner to cover most of the critical organs like e.g. brain, heart and liver and different cell types as epithelium, endothelium or smooth muscle. Tumor cell lines were analyzed side-by-side as positive and negative controls.
(§6) Normalization Method for IFNγ Release: Meannorm(TCRoi;co)=[mean(TCRoi;co)−mean(TCRoi;effector only)]−[mean(mock;co)−mean(mock;effector only)]
The respective CVnorm was calculated: CVnorm(TCRoi;co)=[CV(TCRoi;co)^2+CV(TCRoi;effector only)^2+CV(mock;co)^2+CV(mock;effector only)^2]^[½] TCRoi=effector cells expressing TCR of interest Mock=effector cells without exogenous TCR expression Co=effector cells co-cultured with target cells Effector only=effector cells not co-cultured Mean(norm)=mean IFNγ release (normalized) CV(norm)=coefficient of variation (normalized) Results: […]

[4] = system: human non-small cell cancer cell line, H1755 (NCI-H1755); assay: IFNγ release, TCR-expressing CD8+ T-cells co-incubated with H1755; type: cell-based; conditions: for T-cell activation (IFN-γ release): Example 6, NCI-H1755 expressing HLA-A*02 and MAGEA4
Method: as §3, §4, §5, §6

[5] = system: A-375 (human melanoma cell line, positive for HLA-A2 and MAG-003 expression); assay: IFNγ release, TCR-expressing CD8+ T-cells co-incubated with A-375; type: cell-based; conditions: for IFNγ release: Example 4, A-375, HLA-A2-positive and MAG-003-positive; for T-cell activation (IFN-γ release): Example 6, A-375 expressing HLA-A*02 and MAGEA4
Method: as §3, §4, §5, §6

MHC/MAG-003 complex = target: T1, MHC/MAG-003 complex (Homo sapiens, UniProt P04439+P43358, D140Y/D185E/D98H/E176V/E277Q/G131W/G231S/I119V/I121R/I166T/I218V/L300P/L318F/N151K/N90K/P208A/P217A/Q86G/Q94H/R138H/R169H/T345S); assay: IFN-γ release assay: TCR-RNA-electroporated CD8+ T-cells co-incubated with peptide-loaded target cells; type: cell-based; conditions: target peptide (MAG-003) titration, IFN-γ release
T1 construct: endogenous in cells
Method: In another aspect, to obtain T-cells expressing TCRs of the present description, TCR RNAs were synthesized by techniques described in the art, e.g., in vitro transcription systems. The in vitro-synthesized TCR RNAs were then introduced into primary CD8+ T-cells obtained from healthy donors by electroporation to re-express tumor specific TCR-alpha and/or TCR-beta chains.
To determine specificity and affinity of TCRs, the transformed CD8+ T-cells were co-incubated with MAG-003-loaded target cells or with target cells loaded with homologous but unrelated peptide RABGAP1L-001 (SEQ ID NO:91), AXIN1-001 (SEQ ID NO:92), ANO5-001 (SEQ ID NO:93), TPX2-001 (SEQ ID NO:94), SYNE3-001 (SEQ ID NO:95), MIA3-001 (SEQ ID NO:96), HERC4-001 (SEQ ID NO:97), PSME2-001 (SEQ ID NO:98), HEATR5A-001 (SEQ ID NO:99) or CNOT1-003 (SEQ ID NO:100) or control peptide NYESO1-001 (SEQ ID NO:101), followed by IFN-γ release assay. Unloaded target cells and CD8+ T-cells alone served as controls. IFN-γ secretion from CD8+ T-cells is indicative of T-cell activation with cytotoxic activity.
As shown in FIGS. 5-7 all primary CD8+ T-cells transformed with TCRs of the present disclosure, after co-incubation with MAG-003-loaded target cells, released much higher levels of IFN-γ than that stimulated by unrelated peptide-loaded target cells, and the controls.

% MAG-003 TET-positive primary CD8+ T-cells (MHC/MAG-003 tetramer) | EC50 (MHC/MAG-003 complex) | Molecule | binding affinity and stability towards HLA-A*0201 molecule (HLA-A*0201 molecule) | % NYESO1-001 TET-positive primary CD8+ T-cells (MHC/NYESO1-001 tetramer) | IFNγ release [1] | IFNγ release [2] | T-cell activation (IFN-γ release) by healthy tissue cells [3] | T-cell activation (IFN-γ release) [4] | IFNγ release [5] | T-cell activation (IFN-γ release) [5] | T-cell activation (IFN-γ release) by healthy tissue cells ([3]; listed as R7P1 D5) | IFNγ release ([4]; Example 4, H1755, data not shown)
 |  | YLLEHVVRV (listed as Homo sapiens) [p286-1Y2L] | potent binding affinity and stability |  |  |  |  |  |  |  |  | 
5.38% |  | R10P2G12: TCR, alpha chain SEQ ID NO:71 and beta chain SEQ ID NO:79, MAG-003-specific (protein, listed as Homo sapiens) alpha: MLTASLLRAVIASICVVSSMAQKVTQAQTEISVVEKEDVTLDCVYETRDTTYYLFWYKQPPSGELVFLIRRNSFDEQNEISGRYSWNFQKSTSSFNFTITASQVVDSAVYFCALSEGNSGNTPLVFGKGTRLSVIANIQNPDPAVYQLRDSKSSDKSVCLFTDFDSQTNVSQSKDSDVYITDKTVLDMRSMDFKSNSAVAWSNKSDFACANAFNNSIIPEDTFFPSPESSCDVKLVEKSFETDTNLNFQNLSVIGFRILLLKVAGFNLLMTLRLWSS beta: MGIRLLCRVAFCFLAVGLVDVKVTQSSRYLVKRTGEKVFLECVQDMDHENMFWYRQDPGLGLRLIYFSYDVKMKEKGDIPEGYSVSREKKERFSLILESASTNQTSMYLCASSLSSGSHQETQYFGPGTRLLVLEDLKNVFPPEVAVFEPSEAEISHTQKATLVCLATGFYPDHVELSWWVNGKEVHSGVSTDPQPLKEQPALNDSRYCLSSRLRVSATFWQNPRNHFRCQVQFYGLSENDEWTQDRAKPVTQIVSAEAWGRADCGFTSESYQQGVLSATILYEILLGKATLYAVLVSALVLMAMVKRKDSRG |  | 0.87% | basal levels of IFNγ release | basal levels of IFNγ release | no activation was observed; also recorded: did not lead to significant TCR-mediated recognition and T-cell activation | activity | IFNγ release was observed | activity |  | 
7.99% | ~3 nM | R7P1D5: TCR, alpha chain SEQ ID NO:55 and beta chain SEQ ID NO:63, MAG-003-specific, from HLA-A2 positive donor (protein, listed as Homo sapiens) alpha: MKTFAGFSFLFLWLQLDCMSRGEDVEQSLFLSVREGDSSVINCTYTDSSSTYLYWYKQEPGAGLQLLTYIFSNMDMKQDQRLTVLLNKKDKHLSLRIADTQTGDSAIYFCAEYSSASKIIFGSGTRLSIRPNIQNPDPAVYQLRDSKSSDKSVCLFTDFDSQTNVSQSKDSDVYITDKTVLDMRSMDFKSNSAVAWSNKSDFACANAFNNSIIPEDTFFPSPESSCDVKLVEKSFETDTNLNFQNLSVIGFRILLLKVAGFNLLMTLRLWSS beta: MGSWTLCCVSLCILVAKHTDAGVIQSPRHEVTEMGQEVTLRCKPISGHDYLFWYRQTMMRGLELLIYFNNNVPIDDSGMPEDRFSAKMPNASFSTLKIQPSEPRDSAVYFCASRANTGELFFGEGSRLTVLEDLKNVFPPEVAVFEPSEAEISHTQKATLVCLATGFYPDHVELSWWVNGKEVHSGVSTDPQPLKEQPALNDSRYCLSSRLRVSATFWQNPRNHFRCQVQFYGLSENDEWTQDRAKPVTQIVSAEAWGRADCGFTSESYQQGVLSATILYEILLGKATLYAVLVSALVLMAMVKRKDSRG |  | 0.87% | basal levels of IFNγ release | basal levels of IFNγ release | did not lead to significant TCR-mediated recognition and T-cell activation | activity | IFNγ release was observed | activity | no activation was observed | increased IFNγ release
